In patent publication US20190016812A1 (AbbVie / Abbott, published 2019):
Read-outs that look alike come from different tables or passages of the source.

Experiments:
[1] = target: T1, human TNFSF9 (R&D Systems; #2295-4L-025/CF) (human, UniProt P41273 71-254, limits assumed); experiment: MSD ELISA: TNFSF9 + 1 ug/mL antibody, binding to coated TNFRSF9
T1 construct: also called TNFSF9 (ligand); TNFSF9 ligand

[2] = target: T2, hTNFSF9-His (monomeric human TNFSF9 extracellular domain with 9x-Histidine tag) (human, UniProt P41273 50-254); experiment: SPR (Biacore)
T2 construct: also called hTNFSF9-His protein; monomeric hTNFSF9-His antigen

[3] = target: T3, cynomolgus TNFSF9 (cTNFSF9) protein, soluble recombinant (cynomolgus); experiment: SPR (Biacore)
T3 construct: extracellular domain; also called cynomolgus TNFSF9 protein

[4] = target: T4, human TNFSF9 (hTNFSF9), full length, overexpressed on HEK293T cells (human, UniProt P41273 1-254); experiment: cell-based or functional assay
[5] = target: T5, cynomolgus TNFSF9 (cTNFSF9), full length, overexpressed on HEK293T cells (cynomolgus); experiment: cell-based or functional assay
[6] = target: T4, human TNFSF9 (hTNFSF9), full length, …; experiment: cell-based or functional assay; remark: listed apart in the source
[7] = target: T5, cynomolgus TNFSF9 (cTNFSF9), full …; experiment: cell-based or functional assay; remark: listed apart in the source
[8] = target: T2, hTNFSF9-His (monomeric human TNFSF9 …); experiment: SPR (Biacore); remark: listed apart in the source
[9] = target: T3, cynomolgus TNFSF9 (cTNFSF9) protein, …; experiment: SPR (Biacore); remark: listed apart in the source
[10] = target: T1, human TNFSF9 (R&D Systems; …); experiment: MSD ELISA: TNFSF9 + 1 ug/mL antibody, binding to coated TNFRSF9; remark: listed apart in the source

T2 sequence (P41273 other isoform, or with tags, fused parts or gaps): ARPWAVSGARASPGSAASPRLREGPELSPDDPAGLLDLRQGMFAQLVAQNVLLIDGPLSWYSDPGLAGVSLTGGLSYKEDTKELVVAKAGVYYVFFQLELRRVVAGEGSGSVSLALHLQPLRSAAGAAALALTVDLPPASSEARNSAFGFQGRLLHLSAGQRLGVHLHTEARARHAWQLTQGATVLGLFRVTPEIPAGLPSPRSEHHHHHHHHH
T1 sequence (P41273 71-254 limits assumed): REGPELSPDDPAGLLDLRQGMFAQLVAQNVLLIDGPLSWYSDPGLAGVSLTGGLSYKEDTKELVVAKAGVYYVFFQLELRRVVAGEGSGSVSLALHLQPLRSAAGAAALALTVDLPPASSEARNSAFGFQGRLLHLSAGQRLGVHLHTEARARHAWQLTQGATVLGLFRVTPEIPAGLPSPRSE

| Binder | % inhibition of ligand receptor interaction [1] [%] | Kd [2] [nM] | Kd [3] [nM] | % live cells, Fab-saporin killing, 250 pM antibody [4] [%] | % live cells, Fab-saporin killing, 250 pM antibody [5] [%] | % live cells, Fab-saporin killing, 250 pM antibody [6] [%] | % live cells, Fab-saporin killing, 250 pM antibody [7] [%] | Kd [8] [nM] | Kd [9] [nM] | % inhibition of ligand receptor interaction [10] [%] |
| --- | --- | --- | --- | --- | --- | --- | --- | --- | --- | --- |
| SC113.15 (antibody, mouse IgG1, V domains shown, mouse IgG1) VH: QVQLQQSGAELAKPGASVKMSCKASGYTFTTFWMHWLKQRPGQGLEWIGYINPRTYFTYYNQKFEDQATLTADESSSTAYMQLNSLTSEDSAVYYCATHHGGFDVWGAGTTVTVSS VL: DVVMTQTPLSLPVSLGDQASISCRSSQSLVHSNGDTYLHWYLQKPGQSPKLLIYKVSNRFSGVPDRFSGSRSGTDFTLKISRVEAEDLGIYFCSQSTHVPYTFGGGTKLEIK | 42 | 5 | 11 | 20.2 | 107 | – | – | – | – | – |
| SC113.44 (antibody, mouse IgG1, V domains shown, mouse IgG1) VH: QVQLQQSGPELVKPGTSVRISCKASGYTFTSYYIHWVKQRPGQGLEWIGWIYPRDVDTKYNETFKGKATLTADKSSSTAYIQLNSLTSEDSAVYFCARELTGTVFDYWGQGTTLTVSS VL: QIVLSQSPAILSASPGEKVTMTCRASSSVTYMHWYQRKPGSSPKPWIYATSTLASGVPARFSGTGSGTSYSLTISRVEAEDAATYFCQQWSSNPLTFGAGTKLELK | – | – | – | – | – | 10.8 | 33.9 | 9 | 13 | 48 |
| SC113.35 (antibody, mouse IgG2b, V domains shown, mouse IgG2b) VH: DVQLQESGPDLVKPSQSLSLTCTVTGYSITSGYGWHWIRQFPGNKLEWMGYIDYSGNNNYNPSLKSRISITRDTSKNQLFLQLNSVTAEDTATYFCARIYYDAMDYWGQGTSVTVSS VL: DIVMTQSHKFMSTSVGERVSITCKASQDVGGAVAWYQQKPGQSPKLLIYWASTRHTGVPDRFTGSGSGTDFTLTISNVQSEDLADYFCQQYSSYPLTFGAGTKLDLK | – | – | – | – | – | 28.5 | 69.6 | 4 | 10 | 73 |
| SC113.14 (antibody, mouse IgG2a, V domains shown, mouse IgG2a) VH: QVQLQQSGAELVKPGASVKLSCKASGYTFTEYTIHWVKQKSGQGLEWIGWFYPGSGSLKFNEKFKDKATLTADISSNTVYMELSRLTSEDSAVYFCARHEDFFYFDSYTMDYWGQGTSVTVSS VL: QIVLTQSPAIMSASPGEKVTLTCSASSSVSSSYLYWYQQKPGSSPKLWIYSTSKLSSGVPARFSGSGSGTSYSLTISSMEAEDAASYFCHQWSTYPWTFGGGTKLEIK | -34 | 3 | 7 | 10.2 | 11 | – | – | – | – | – |
| SC113.36 (antibody, mouse IgG1, V domains shown, mouse IgG1) VH: QVQLKESGPDLVAPSQSLSITCTVSGFSLTSYGVHWVRQPPGKGLEWLGVIWAGGFTNYNSALMSRLSISKDNSKSQVFLKMSSLQTDDTAMYYCVREKDYRYSHYFDYWGQGTTLTVSS VL: DIVMSQSPSSLAVSVGEKVTLSCKSSLSLLYSSNQENYLAWYQQKPGQSPKLLIYWASTRESGVPDRFTGSGSGTDFTLTISSVKAEDLAVYYCQQYYSYPRTFGGGTKLEIK | 23 | – | – | – | – | 17.8 | 102 | 3 | 12 | – |
| SC113.46 (antibody, V domains shown, mouse antibody, isotype N/A) VH: QIQLVQSGPELKKPGETVKISCKASGYSFTNYGMNWVKQTPRKGLKWVGWINTYTGETTYADDFKGRFAFSLETSASTAYLQINNLKNEDMATYFCARIYGYGWFAYWGQGTLVTVSA VL: DIQMTQSPSSLSASLGERVSLTCRASQEISGYLSWLQQKPDGTIKRLIYAASTLDSGAPKRFSGSRSGSDYSLIISSLESEDFADYYCLQYSSYPYTFGGGTKLEIK | – | – | – | – | – | 28.3 | 31.3 | 4 | 16 | – |
